Laboratory results from the supplement of paper PMC10567573.
± gives the standard deviation.

Assay: protein stability index of a GFP-peptide fusion (GPS, HEK-293T) (PSI 1-6); higher = more stable
[1] = treatment: DMSO, c terminus: a fixed tail appended
[2] = treatment: MLN4924 1 uM, 8 h, c terminus: a fixed tail appended
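Note: 24-mer peptide tiles fused after GFP, lentivirally expressed, FACS-sorted into six equal bins by GFP/DsRed ratio, decoded by Illumina sequencing, PSI is the read-weighted mean bin number.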

Sequence	protein stability index [1]	protein stability index [2]	protein stability index (treatment: DMSO, c terminus: native)	protein stability index (treatment: MLN4924 1 uM, 8 h, c terminus: native)
PVHLVDKLPLPSTLRSHLKSFSMA [RAB40A]	2.6 ± 0.085	2.63 ± 0.19		
ENVDEASAAPGHPQDGSYPRQADH [KCNA1]	5.55 ± 0.25	5.47 ± 0.26		
ALDNESWGFVHPRLLSVPELCHHV [RETREG3]	2.65 ± 0.42	2.46 ± 0.23		
VEDLVDSLKLALLFYILTFVGAIF [RTN2]	2.8 ± 0.35	2.48 ± 0.55		
MQRGARLPAEVAGLSQVLLRGGGQ [POMT2]	3.6 ± 0.27	3.64 ± 0.21		
ADLLLLTDLKTLCCEFLEGCIAAE [GAN]	2.15 ± 0.42	2.16 ± 0.58		
GDVMHLSQSPSVSQLSVLSLSGVM [PRAME]	2.43 ± 0.42	2.28 ± 0.31		
FFIRTSDSFDKFDFCEPSFVTGNC [PCMTD2]	2.52 ± 0.33	2.42 ± 0.26		
QKVTCFYQPAPYFAAEARYPIYVI [TENT5D]	2.89 ± 0.4	2.54 ± 0.49		
QECLKQLAIKKQQHIDNITQIEDA [TRIM14]	4.93 ± 0.19	4.72 ± 0.22		
FLLCARSLLRGFLLQNEFVGFMWR [MCOLN1]	2.55 ± 0.34	2.39 ± 0.79		
VAITILQDDHDHKVQELMSTHELE [MTUS2]	3.3 ± 0.3	3.43 ± 0.23		
PVALLLAQHKDRSTQLEMQLEKPK [MNAT1]	3.84 ± 0.19	3.8 ± 0.12		
SHKERFDPSGKGKGKAGRVDLVDE [TPPP]	5.04 ± 0.46	5.24 ± 0.2		
ADDFRTKYEHELALRQTVEADVNG [KRT16]	5.17 ± 0.38	5.09 ± 0.034		
EELEDSKALLYLPIAPEVEDPEEN [RBBP5]	5.5 ± 0.6	5.24 ± 0.42		
GTADGRVVKLENGEIETIARFGSG [APMAP]	4.66 ± 0.25	4.64 ± 0.1		
PSTLGRCKAFSTCVSHLIIVTVHY [OR10K2]	3.07 ± 0.41	2.89 ± 0.5		
KEMEQLFSQYGRIITSRILVDQVT [ELAVL3]	2.94 ± 0.24	3.41 ± 0.58		
YLNFIRGVVDSEDLPLNISREMLQ [HSP90AB1]	2.69 ± 0.12	3.09 ± 0.47		
KVKTMEVTSVSIELEKNFSNFPRQ [TRIM39]	3.15 ± 0.23	3.42 ± 0.36		
RTLRNFINDEMQAKGIPQRAPPKR [PCMTD1]	4.06 ± 0.16	3.98 ± 0.36		
LSPKKTWEGFIGGFFSTVVFGFIA [CDS1]	2.28 ± 0.47	2.15 ± 0.63		

Sequence	protein stability index [1]	protein stability index [2]	protein stability index (treatment: DMSO, c terminus: native)	protein stability index (treatment: MLN4924 1 uM, 8 h, c terminus: native)
LLVINESIESIKWMIEEKATITSR [LURAP1L]	2.38 ± 0.24	2.51 ± 0.3		
LPSLGLPQYRSYFMECLVDARMLD [PPFIA4]	2.47 ± 0.46	2.13 ± 0.38		
KPYAVMVFQTEQKNLFRLEMDMVV [N4BP2L1]	2.7 ± 0.1	2.96 ± 0.88		
LTGFSWRGGSDPETTGIQIWSEVF [ATL3]	2.16 ± 0.33	1.59 ± 0.4		
SDWFNFHGHMCIAFELLGKNTFEF [CLK3]	3 ± 0.3	2.94 ± 0.31		
LETQAQVCQALAQVDGGANFSVDR [CPOX]	4.85 ± 0.18	4.96 ± 0.14		
MATEGLHENETLASLKSEAESLKG [GNB5]	5.31 ± 0.23	5.2 ± 0.15		
DDGTYSQVQCHSYTGYCWCVTPNG [SMOC2]	2.48 ± 0.14	2.66 ± 0.47		
VVGGAMFFIGFTALVIMWQKHYVY [COX4I1]	3.11 ± 0.29	3.24 ± 0.49		
RILGLDQKKDCVPLMKPHRPWADT [HESX1]	2.34 ± 0.17	2.36 ± 0.24		
ALILHQRIHSGEKPYGCVECGKAF [ZNF24]	2.17 ± 0.052	2.5 ± 0.4		
RPKDTVMCYRVRWEEAAPGRAVEH [MYORG]	2.85 ± 0.39	2.91 ± 0.35		
SLVTVGKHLTARVLCLIVLPLALY [POMT2]	2.63 ± 0.58	2.58 ± 0.33		
LNVTNYCHLAHELRLSCMERKKVQ [DCAF4]	2.61 ± 0.19	2.36 ± 0.21		
PPYSRLSPRDEYKPLDLSDSTLSY [SMAD6]	3.89 ± 0.18	3.84 ± 0.24		
EQGAIPRLVQLLVRAHQDTQRRTS [CTNNB1]	3.18 ± 0.19	3.26 ± 0.22		
LDAVEAQIGCKLPDDYRCSYRIHN [FBXO3]	2.98 ± 0.39	3.15 ± 0.33		
SEDEEEYESGYAFLPDLLIFQMVI [SMG5]	2.76 ± 0.62	2.59 ± 0.53		
ASHLGNELEGTEELCCVAELDNPM [C2CD2L]	5.2 ± 0.23	5.25 ± 0.18		
PDIRTKDIEDVFYKYGAIRDIDLK [SRSF1]	3.59 ± 0.12	3.62 ± 0.24		
LPWFRTLSWYFLLCVNYFFYGETV [CDS1]	3.08 ± 0.14	3.38 ± 0.75		
TCCESTQRSVSDVASGSTPAPALC [IRX6]	4.48 ± 0.067	4.51 ± 0.11		
PGSCGAGAPSPGSSDVSTAGTGAS [ELF3]	4.98 ± 0.29	5.08 ± 0.17		

Sequence	protein stability index [1]	protein stability index [2]	protein stability index (treatment: DMSO, c terminus: native)	protein stability index (treatment: MLN4924 1 uM, 8 h, c terminus: native)
INYNGIFSLKQEETLDYGKNYNYG [NEUROD6]	2.49 ± 0.22	2.53 ± 0.22		
DKLALCHLELTRKLQDLIKDVLRY [FCHO1]	2.9 ± 0.48	2.74 ± 0.43		
APSPQEALVRLRETEEMLGKKQEY [CHMP4C]	5.26 ± 0.25	5.12 ± 0.096		
ALELLGATFVDKKRDLLGALKYWK [FEM1C]	2.25 ± 0.37	2.52 ± 0.86		
EILLDFVYTETVHVTVENVQELLP [KLHL12]	2.31 ± 0.59	2.4 ± 1.3		
RDEESFFGERRIPRGRRISVICRS [ALKBH7]	3.24 ± 0.24	3.65 ± 0.24		
FVELIGPKLREETAHMLGVRELRI [CABP4]	2.69 ± 0.88	2.14 ± 0.88		
ICEQAEYHMFQREKVEVQLPELFH [KCNAB2]	3.17 ± 0.24	3.06 ± 0.29		
PATSPLVLAIPRRLRVELECEEGE [TRIM35]	4.92 ± 0.22	4.78 ± 0.13		
GDLFESTPEVAAAPKPDAAPSIDL [SNAP91]	5.3 ± 0.29	5.27 ± 0.16		
MRLNSTGEVPVLIHGENIICEATQ [GDAP1]	3.69 ± 0.17	3.8 ± 0.45		
EFIQEIRRQLEACQRERAFSVKFE [OAS1]	2.29 ± 0.31	2.27 ± 0.56		
ANLKQVKKEDTEKERDLRDVGDWR [TNNI2]	5.33 ± 0.076	4.96 ± 0.24		
VQAPRWGNPRALSFVLSSLQLGEG [OAS1]	2.31 ± 0.2	2.24 ± 0.22		
PQVWREAATQVFFALGLGFGGVIA [SLC6A17]	3.78 ± 0.85	3.4 ± 0.82		
DLDAKIREALVLRSVRVRLLLSFW [PLD5]	3.52 ± 0.33	2.53 ± 0.86		
NSIAHYRQVNIRTANCTTANQNCV [KCNA1]	3.17 ± 0.17	3.19 ± 0.27		
LSMNWAIVADILLYVVIPTRRSTA [SPNS1]	2.63 ± 0.62	3.01 ± 0.77		
QSSADGSQPPKKKPKTTNIELQGV [RBBP5]	5.09 ± 0.16	5.26 ± 0.36		
GMPPAGTGMPMMPQQPVMFAQPMM [SNAP91]	3.03 ± 0.17	3.2 ± 0.34		
MAMTAGTTTTFPMSNHTRERVTVA [STK38L]	3.2 ± 0.36	3.28 ± 0.36		
KQIYNLIHLDPRTREGFTLLHLAV [FEM1B]	2.66 ± 0.52	2.67 ± 0.61		
GEEDFSLSATIGSILRELDTSMDG [SERTAD3]	3.75 ± 0.2	3.93 ± 0.44		

Sequence	protein stability index [1]	protein stability index [2]	protein stability index (treatment: DMSO, c terminus: native)	protein stability index (treatment: MLN4924 1 uM, 8 h, c terminus: native)
LNQKTSEKMKKRKMSNSFHGIRPP [RHOBTB3]	3.95 ± 0.34	4.23 ± 0.11		
KVCLLGDTGVGKSSIVWRFVEDSF [RAB22A]	2.28 ± 0.22	2.48 ± 0.68		
VSSNNRLVVTGSGEHASVYQITY [TLE6]			2.7 ± 0.26	2.68 ± 0.23
QSLTQRLHALKLRSPDASPSRAPP [GNAS]	4.06 ± 0.17	4.14 ± 0.22		
WEIAKAEVEKRGINGSEGDGAEIA [DYNC2LI1]	5.26 ± 0.22	5.18 ± 0.27		
WAEAECQRQQLPVTFGNKQKVLGK [BTBD1]	4.42 ± 0.45	4.31 ± 0.42		
NPGTDAVAQTSLEEFNVLEMEVMR [FATE1]	4.71 ± 0.18	4.68 ± 0.13		
VYRFVCDLQNLLGFTPEELHAILG [ETS2]	2.21 ± 0.41	2.19 ± 0.11		
CQALPYGPGYWMCCHRSQKGFPGC [FBXO34]	2.35 ± 0.44	2.23 ± 0.32		
MTVMSGENVDEASAAPGHPQDGSY [KCNA1]	5.37 ± 0.21	5.12 ± 0.14		
LQYSTQVHTEFTLRNFNSAKDMKK [MATN2]	3.73 ± 0.3	4.08 ± 0.32		
AESFPGSQVMGSGRGSLSSGGQTS [PLEKHN1]	4.81 ± 0.2	4.88 ± 0.25		
CPWEPQKQPPWEFLQVLEPGARGL [SPAG8]	3.11 ± 0.24	3.36 ± 0.11		
MKDRTQELRTAKDSDDDDDVAVTV [STX1A]	5.11 ± 0.33	5.43 ± 0.32		
TPLQQVSIEEILEEQRVEQQTKLE [LSM1]	5.37 ± 0.17	5.34 ± 0.29		
DSEEELAAFCPQLDDSTVARELAI [RETREG3]	5.12 ± 0.28	5.24 ± 0.19		
PAPPPPAGGATAWGDLLGEDSLAA [SNAP91]	5.13 ± 0.22	5.11 ± 0.13		
AEEEEEEEEEVDLACTPTDVRDVD [CCND1]	5.53 ± 0.31	5.41 ± 0.34		
QAIIESCSRQFPEFQERARKRIRT [NOL4L]	3.69 ± 0.27	4.09 ± 0.21		
HSGEKPYKCSDCGKTFKQSSNLGQ [ZNF232]	3.76 ± 0.3	3.57 ± 0.37		
